{"source": "patent US20240398949A1", "about": "(OSLO UNIVERSITETSSYKEHUS HF, published 2024)", "binders": {"B1": {"name": "Oslo-2 antibody (monoclonal antibody against p95HER2) (antibody, V domains shown)", "VH": "EVQILETGGGLVKPGGSLRLSCATSGFNFNDYFMNWVRQAPGKGLEWIAQIRNKNYNYATYFAESLEGRFTISRDDSKSSVYLQVNSLRAEDTALYYCTELRYDYWGQGVMVTVSS", "VL": "DIVMTQSPFSLAVSEGEMVTINCKSSQSLLSSGNQKNNLAWYQQKPGQSPKLLIYYASTRQSGVPDRFIGSGSGTDFTLTISDVQAEDLADYYCLQHYSSPYTFGAGTKLELK", "notes": "Monoclonal antibody from a rat hybridoma (mClone 1), detected with goat anti-rat-PE; also called the antibody of interest; the antibody"}}, "key": {"[1]": {"target": "T1, Peptide 3 of Table 3 (15mer of the p95HER2 extracellular domain)", "T1 construct": "Synthetic peptide immobilized on a cellulose membrane", "T1 peptide": "EEGACQPCPINCTHS", "experiment": "peptide array on cellulose membrane, overlapping 15mers, signal intensity (area under curve), triplicate spots"}, "[2]": {"target": "T2, Peptide 6 of Table 3 (15mer of the p95HER2 extracellular domain)", "T2 construct": "Synthetic peptide immobilized on a cellulose membrane", "T2 peptide": "THSCVDLDDKGCPAE", "experiment": "peptide array on cellulose membrane, overlapping 15mers, signal intensity (area under curve), triplicate spots"}, "[3]": {"target": "T3, Peptide 4 of Table 3 (15mer of the p95HER2 extracellular domain)", "T3 construct": "Synthetic peptide immobilized on a cellulose membrane", "T3 peptide": "CQPCPINCTHSCVDL", "experiment": "peptide array on cellulose membrane, overlapping 15mers, signal intensity (area under curve), triplicate spots"}, "[4]": {"target": "T4, Peptide 7 of Table 3 (15mer of the p95HER2 extracellular domain)", "T4 construct": "Synthetic peptide immobilized on a cellulose membrane", "T4 peptide": "VDLDDKGCPAEQRAS", "experiment": "peptide array on cellulose membrane, overlapping 15mers, signal intensity (area under curve), triplicate spots"}, "[5]": {"target": "T5, Peptide 2 of Table 3 (15mer of the p95HER2 extracellular domain)", "T5 construct": "Synthetic peptide immobilized on a cellulose membrane; also called KFPDEEGACQPCPIN", "T5 peptide": "KFPDEEGACQPCPIN", "experiment": "peptide array on cellulose membrane, overlapping 15mers, signal intensity (area under curve), triplicate spots"}, "[6]": {"target": "T6, Peptide 8 of Table 3 (15mer of the p95HER2 extracellular domain)", "T6 construct": "Synthetic peptide immobilized on a cellulose membrane", "T6 peptide": "DDKGCPAEQRASPLT", "experiment": "peptide array on cellulose membrane, overlapping 15mers, signal intensity (area under curve), triplicate spots"}, "[7]": {"target": "T7, Peptide 1 of Table 3 (15mer of the p95HER2 extracellular domain)", "T7 construct": "Synthetic peptide immobilized on a cellulose membrane", "T7 peptide": "MPIWKFPDEEGACQP", "experiment": "peptide array on cellulose membrane, overlapping 15mers, signal intensity (area under curve), triplicate spots"}, "[8]": {"target": "T8, Peptide 5 of Table 3 (peptide of the p95HER2 extracellular domain)", "T8 construct": "Synthetic peptide immobilized on a cellulose membrane", "T8 peptide": "INCTHSCVDLDDKG", "experiment": "peptide array on cellulose membrane, overlapping 15mers, signal intensity (area under curve), triplicate spots"}, "peptide 6 (FIGURE 3 d/e)": {"target": "T9, peptide 6 (FIGURE 3 d/e)", "T9 peptide": "LSYMPIWKFPDEEGA", "experiment": "peptide array on cellulose membrane, truncation series, signal intensity (area under curve), duplicate spots"}, "peptide 4 (FIGURE 3 d/e)": {"target": "T10, peptide 4 (FIGURE 3 d/e)", "T10 peptide": "PDLSYMPIWKFPDEEGA", "experiment": "peptide array on cellulose membrane, truncation series, signal intensity (area under curve), duplicate spots"}, "peptide 3 (FIGURE 3 d/e)": {"target": "T11, peptide 3 (FIGURE 3 d/e)", "T11 peptide": "KPDLSYMPIWKFPDEEGA", "experiment": "peptide array on cellulose membrane, truncation series, signal intensity (area under curve), duplicate spots"}, "[9]": {"target": "T12, peptide 15 (FIGURE 3 d/e)", "T12 construct": "also called PDEEGA", "T12 peptide": "PDEEGA", "experiment": "peptide array on cellulose membrane, truncation series, signal intensity (area under curve), duplicate spots"}, "[10]": {"target": "T13, peptide 14 (FIGURE 3 d/e)", "T13 construct": "also called FPDEEGA", "T13 peptide": "FPDEEGA", "experiment": "peptide array on cellulose membrane, truncation series, signal intensity (area under curve), duplicate spots"}, "[11]": {"target": "T14, Peptide 10 of Table 4 (N-terminal truncation, methionine-611 lost)", "T14 peptide": "PIWKFPDEEGA", "experiment": "peptide array on cellulose membrane, truncation series, signal intensity (area under curve), duplicate spots"}, "[12]": {"target": "T15, peptide 16 (FIGURE 3 d/e)", "T15 construct": "also called DEEGA", "T15 peptide": "DEEGA", "experiment": "peptide array on cellulose membrane, truncation series, signal intensity (area under curve), duplicate spots"}, "[13]": {"target": "T16, Peptide 12 of Table 4 (N-terminal truncation, isoleucine-613 lost)", "T16 peptide": "WKFPDEEGA", "experiment": "peptide array on cellulose membrane, truncation series, signal intensity (area under curve), duplicate spots"}, "peptide 9 (FIGURE 3 d/e)": {"target": "T17, peptide 9 (FIGURE 3 d/e)", "T17 peptide": "MPIWKFPDEEGA", "experiment": "peptide array on cellulose membrane, truncation series, signal intensity (area under curve), duplicate spots"}, "peptide 5 (FIGURE 3 d/e)": {"target": "T18, peptide 5 (FIGURE 3 d/e)", "T18 peptide": "DLSYMPIWKFPDEEGA", "experiment": "peptide array on cellulose membrane, truncation series, signal intensity (area under curve), duplicate spots"}, "peptide 2 (FIGURE 3 d/e)": {"target": "T19, peptide 2 (FIGURE 3 d/e)", "T19 peptide": "VKPDLSYMPIWKFPDEEGA", "experiment": "peptide array on cellulose membrane, truncation series, signal intensity (area under curve), duplicate spots"}, "[14]": {"target": "T20, peptide 17 (FIGURE 3 d/e)", "T20 construct": "also called EEGA", "T20 peptide": "EEGA", "experiment": "peptide array on cellulose membrane, truncation series, signal intensity (area under curve), duplicate spots"}, "peptide 7 (FIGURE 3 d/e)": {"target": "T21, peptide 7 (FIGURE 3 d/e)", "T21 peptide": "SYMPIWKFPDEEGA", "experiment": "peptide array on cellulose membrane, truncation series, signal intensity (area under curve), duplicate spots"}, "[15]": {"target": "T22, Peptide 1 of Table 4 (HER2 glycine-603 to alanine-622)", "T22 construct": "Parent peptide of the N-terminal truncation and double-alanine substitution series", "T22 peptide": "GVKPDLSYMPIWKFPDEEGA", "experiment": "peptide array on cellulose membrane, truncation series, signal intensity (area under curve), duplicate spots"}, "[16]": {"target": "T23, Peptide 11 of Table 4 (N-terminal truncation, proline-612 lost)", "T23 peptide": "IWKFPDEEGA", "experiment": "peptide array on cellulose membrane, truncation series, signal intensity (area under curve), duplicate spots"}, "peptide 8 (FIGURE 3 d/e)": {"target": "T24, peptide 8 (FIGURE 3 d/e)", "T24 peptide": "YMPIWKFPDEEGA", "experiment": "peptide array on cellulose membrane, truncation series, signal intensity (area under curve), duplicate spots"}, "[17]": {"target": "T25, Peptide 13 of Table 4 (N-terminal truncation, tryptophan-614 lost)", "T25 peptide": "KFPDEEGA", "experiment": "peptide array on cellulose membrane, truncation series, signal intensity (area under curve), duplicate spots"}}, "data": [{"binder": "B1", "values": [{"measurement": "binding result", "setting": "[1]", "result": "no binding"}, {"measurement": "binding result", "setting": "[2]", "result": "no binding"}, {"measurement": "binding result", "setting": "[3]", "result": "no binding"}, {"measurement": "binding result", "setting": "[4]", "result": "no binding"}, {"measurement": "binding result", "setting": "[5]", "result": "no binding"}, {"measurement": "binding result", "setting": "[6]", "result": "no binding"}, {"measurement": "binding result", "setting": "[7]", "result": "binds"}, {"measurement": "binding result", "setting": "[8]", "result": "no binding"}, {"measurement": "binding result", "setting": "peptide 6 (FIGURE 3 d/e)", "result": "binds"}, {"measurement": "binding result", "setting": "peptide 4 (FIGURE 3 d/e)", "result": "binds"}, {"measurement": "binding result", "setting": "peptide 3 (FIGURE 3 d/e)", "result": "binds"}, {"measurement": "binding result", "setting": "[9]", "result": "no binding"}, {"measurement": "binding result", "setting": "[10]", "result": "no binding"}, {"measurement": "binding result", "setting": "[11]", "result": "binds"}, {"measurement": "binding result", "setting": "[12]", "result": "no binding"}, {"measurement": "binding result", "setting": "[13]", "result": "binds"}, {"measurement": "binding result", "setting": "peptide 9 (FIGURE 3 d/e)", "result": "binds"}, {"measurement": "binding result", "setting": "peptide 5 (FIGURE 3 d/e)", "result": "binds"}, {"measurement": "binding result", "setting": "peptide 2 (FIGURE 3 d/e)", "result": "binds"}, {"measurement": "binding result", "setting": "[14]", "result": "no binding"}, {"measurement": "binding result", "setting": "peptide 7 (FIGURE 3 d/e)", "result": "binds"}, {"measurement": "binding result", "setting": "[15]", "result": "binds"}, {"measurement": "binding result", "setting": "[16]", "result": "binds"}, {"measurement": "binding result", "setting": "peptide 8 (FIGURE 3 d/e)", "result": "binds"}, {"measurement": "binding result", "setting": "[17]", "result": "no binding"}]}]}
